Measurements taken from patent US20140105889A1 (published 2014).

B1: antibody containing VH3-IgG1-F890 for the heavy chain and L(WT)-CK for the light chain (antibody)
heavy: QVQLQESGPGLVKPSETLSLTCAVSGHSISHDHAWSWVRQPPGEGLEWIGFISYSGITNYNPSLQGRVTISRDNSKNTLYLQMNSLRAEDTAVYYCARSLARTTAMDYWGEGTLVTVSSASTKGPSVFPLAPSSKSTSGGTAALGCLVKDYFPEPVTVSWNSGALTSGVHTFPAVLQSSGLYSLSSVVTVPSSSLGTQTYICNVNHKPSNTKVDKKVEPKSCDKTHTCPPCPAPELLGGPSVFLFPPKPKDTLYISRTPEVTCVVVDVSHEDPEVKFNWYVDGVEVHNAKTKPREEQYNSTYRVVSVLTVLHQDWLNGKEYKCKVSNKALPAPIEKTISKAKGQPREPQVYTLPPSRDELTKNQVSLTCLVKGFYPSDIAVEWESNGQPENNYKTTPPVLDSDGSFFLYSKLTVDKSRWQQGNVFSCSVMHEALHYHVTQKSLSLSP
light: not shown
B2: antibody containing VH3-IgG1-F1327 for the heavy chain and L(WT)-CK for the light chain (antibody)
heavy: QVQLQESGPGLVKPSETLSLTCAVSGHSISHDHAWSWVRQPPGEGLEWIGFISYSGITNYNPSLQGRVTISRDNSKNTLYLQMNSLRAEDTAVYYCARSLARTTAMDYWGEGTLVTVSSASTKGPSVFPLAPSSKSTSGGTAALGCLVKDYFPEPVTVSWNSGALTSGVHTFPAVLQSSGLYSLSSVVTVPSSSLGTQTYICNVNHKPSNTKVDKKVEPKSCDKTHTCPPCPAPEAAGGPSVFLFPPKPKDVLYISRTPEVTCVVVDVSHEDPEVKFNWYVDGVEVHNAKTKPREEQYASTYRVVSVLQPLHADWLNGKEYKCKVSNKALPAPIEKTISKAKGQPREPQVYTLPPSRDELTKNQVSLTCLVKGFYPSDIAVEWESNGQPENNYKTTPPVLDSDGSFFLYSKLTVDKSRWQQGNVFSCSVMHEALHYHVTQKSLSLSP
light: not shown
B3: antibody containing VH3-IgG1-F1333 for the heavy chain and L(WT)-CK for the light chain (antibody)
heavy: QVQLQESGPGLVKPSETLSLTCAVSGHSISHDHAWSWVRQPPGEGLEWIGFISYSGITNYNPSLQGRVTISRDNSKNTLYLQMNSLRAEDTAVYYCARSLARTTAMDYWGEGTLVTVSSASTKGPSVFPLAPSSKSTSGGTAALGCLVKDYFPEPVTVSWNSGALTSGVHTFPAVLQSSGLYSLSSVVTVPSSSLGTQTYICNVNHKPSNTKVDKKVEPKSCDKTHTCPPCPAPELRRGPKVFLFPPKPKDTLYISRTPEVTCVVVDVSHEDPEVKFNWYVDGVEVHNAKTKPREEQYNSTYRVVSVLTVLHQDWLNGKEYKCKVSNKALPAPIEKTISKAKGQPREPQVYTLPPSRDELTKNQVSLTCLVKGFYPSDIAVEWESNGQPENNYKTTPPVLDSDGSFFLYSKLTVDKSRWQQGNVFSCSVMHEALHYHVTQKSLSLSP
light: not shown
B4: antibody containing VH3-IgG1-F938 for the heavy chain and L(WT)-CK for the light chain (antibody)
heavy: QVQLQESGPGLVKPSETLSLTCAVSGHSISHDHAWSWVRQPPGEGLEWIGFISYSGITNYNPSLQGRVTISRDNSKNTLYLQMNSLRAEDTAVYYCARSLARTTAMDYWGEGTLVTVSSASTKGPSVFPLAPSSKSTSGGTAALGCLVKDYFPEPVTVSWNSGALTSGVHTFPAVLQSSGLYSLSSVVTVPSSSLGTQTYICNVNHKPSNTKVDKKVEPKSCDKTHTCPPCPAPELKGGPKVFLFPPKPKDTLYISRTPEVTCVVVDVSHEDPEVKFNWYVDGVEVHNAKTKPREEQYNSTYRVVSVLTVLHQDWLNGKEYKCKVSNKALPAPIEKTISKAKGQPREPQVYTLPPSRDELTKNQVSLTCLVKGFYPSDIAVEWESNGQPENNYKTTPPVLDSDGSFFLYSKLTVDKSRWQQGNVFSCSVMHEALHYHVTQKSLSLSP
light: not shown
B5: antibody containing VH3-IgG1-F1317 for the heavy chain and L(WT)-CK for the light chain (antibody)
heavy: QVQLQESGPGLVKPSETLSLTCAVSGHSISHDHAWSWVRQPPGEGLEWIGFISYSGITNYNPSLQGRVTISRDNSKNTLYLQMNSLRAEDTAVYYCARSLARTTAMDYWGEGTLVTVSSASTKGPSVFPLAPSSKSTSGGTAALGCLVKDYFPEPVTVSWNSGALTSGVHTFPAVLQSSGLYSLSSVVTVPSSSLGTQTYICNVNHKPSNTKVDKKVEPKSCDKTHTCPPCPAPELLGGPKVFLFPPKPKDTLYISRTPEVTCVVVDVSHEDPEVKFNWYVDGVEVHNAKTKPREEQYNSTYRVVSVLTVLHQDWLNGKEYKCKVSNKALKAPIEKTISKAKGQPREPQVYTLPPSRDELTKNQVSLTCLVKGFYPSDIAVEWESNGQPENNYKTTPPVLDSDGSFFLYSKLTVDKSRWQQGNVFSCSVMHEALHYHVTQKSLSLSP
light: not shown
B6: antibody containing VH3-IgG1-F1325 for the heavy chain and L(WT)-CK for the light chain (antibody)
heavy: QVQLQESGPGLVKPSETLSLTCAVSGHSISHDHAWSWVRQPPGEGLEWIGFISYSGITNYNPSLQGRVTISRDNSKNTLYLQMNSLRAEDTAVYYCARSLARTTAMDYWGEGTLVTVSSASTKGPSVFPLAPSSKSTSGGTAALGCLVKDYFPEPVTVSWNSGALTSGVHTFPAVLQSSGLYSLSSVVTVPSSSLGTQTYICNVNHKPSNTKVDKKVEPKSCDKTHTCPPCPAPEAAGGPSVFLFPPKPKDTLYISRTPEVTCVVVDVSHEDPEVKFNWYVDGVEVHNAKTKPREEQYASTYRVVSVLTVLHQDWLNGKEYKCKVSNKALPAPIEKTISKAKGQPREPQVYTLPPSRDELTKNQVSLTCLVKGFYPSDIAVEWESNGQPENNYKTTPPVLDSDGSFFLYSKLTVDKSRWQQGNVFSCSVMHEALHYHVTQKSLSLSP
light: not shown
B7: antibody containing VH3-IgG1-F947 for the heavy chain and L(WT)-CK for the light chain (antibody)
heavy: QVQLQESGPGLVKPSETLSLTCAVSGHSISHDHAWSWVRQPPGEGLEWIGFISYSGITNYNPSLQGRVTISRDNSKNTLYLQMNSLRAEDTAVYYCARSLARTTAMDYWGEGTLVTVSSASTKGPSVFPLAPSSKSTSGGTAALGCLVKDYFPEPVTVSWNSGALTSGVHTFPAVLQSSGLYSLSSVVTVPSSSLGTQTYICNVNHKPSNTKVDKKVEPKSCDKTHTCPPCPAPELLGGPSVFLFPPKPKDVLYISRTPEVTCVVVDVSHEDPEVKFNWYVDGVEVHNAKTKPREEQYNSTYRVVSVLQPLHADWLNGKEYKCKVSNKALPAPIEKTISKAKGQPREPQVYTLPPSRDELTKNQVSLTCLVKGFYPSDIAVEWESNGQPENNYKTTPPVLDSDGSFFLYSKLTVDKSRWQQGNVFSCSVMHEALHYHVTQKSLSLSP
light: not shown
B8: antibody containing VH3-IgG1-F1316 for the heavy chain and L(WT)-CK for the light chain (antibody)
heavy: QVQLQESGPGLVKPSETLSLTCAVSGHSISHDHAWSWVRQPPGEGLEWIGFISYSGITNYNPSLQGRVTISRDNSKNTLYLQMNSLRAEDTAVYYCARSLARTTAMDYWGEGTLVTVSSASTKGPSVFPLAPSSKSTSGGTAALGCLVKDYFPEPVTVSWNSGALTSGVHTFPAVLQSSGLYSLSSVVTVPSSSLGTQTYICNVNHKPSNTKVDKKVEPKSCDKTHTCPPCPAPELLGRPKVFLFPPKPKDTLYISRTPEVTCVVVDVSHEDPEVKFNWYVDGVEVHNAKTKPREEQYNSTYRVVSVLTVLHQDWLNGKEYKCKVSNKALPAPIEKTISKAKGQPREPQVYTLPPSRDELTKNQVSLTCLVKGFYPSDIAVEWESNGQPENNYKTTPPVLDSDGSFFLYSKLTVDKSRWQQGNVFSCSVMHEALHYHVTQKSLSLSP
light: not shown
B9: antibody containing VH3-IgG1-F1009 for the heavy chain and L(WT)-CK for the light chain (antibody)
heavy: QVQLQESGPGLVKPSETLSLTCAVSGHSISHDHAWSWVRQPPGEGLEWIGFISYSGITNYNPSLQGRVTISRDNSKNTLYLQMNSLRAEDTAVYYCARSLARTTAMDYWGEGTLVTVSSASTKGPSVFPLAPSSKSTSGGTAALGCLVKDYFPEPVTVSWNSGALTSGVHTFPAVLQSSGLYSLSSVVTVPSSSLGTQTYICNVNHKPSNTKVDKKVEPKSCDKTHTCPPCPAPELRGGPKVFLFPPKPKDVLYISRTPEVTCVVVDVSHEDPEVKFNWYVDGVEVHNAKTKPREEQYNSTYRVVSVLQPLHADWLNGKEYKCKVSNKALPAPIEKTISKAKGQPREPQVYTLPPSRDELTKNQVSLTCLVKGFYPSDIAVEWESNGQPENNYKTTPPVLDSDGSFFLYSKLTVDKSRWQQGNVFSCSVMHEALHYHVTQKSLSLSP
light: not shown
B10: antibody containing VH3-IgG1-F939 for the heavy chain and L(WT)-CK for the light chain (antibody)
heavy: QVQLQESGPGLVKPSETLSLTCAVSGHSISHDHAWSWVRQPPGEGLEWIGFISYSGITNYNPSLQGRVTISRDNSKNTLYLQMNSLRAEDTAVYYCARSLARTTAMDYWGEGTLVTVSSASTKGPSVFPLAPSSKSTSGGTAALGCLVKDYFPEPVTVSWNSGALTSGVHTFPAVLQSSGLYSLSSVVTVPSSSLGTQTYICNVNHKPSNTKVDKKVEPKSCDKTHTCPPCPAPELRGGPKVFLFPPKPKDTLYISRTPEVTCVVVDVSHEDPEVKFNWYVDGVEVHNAKTKPREEQYNSTYRVVSVLTVLHQDWLNGKEYKCKVSNKALPAPIEKTISKAKGQPREPQVYTLPPSRDELTKNQVSLTCLVKGFYPSDIAVEWESNGQPENNYKTTPPVLDSDGSFFLYSKLTVDKSRWQQGNVFSCSVMHEALHYHVTQKSLSLSP
light: not shown
B11: antibody containing VH3-IgG1-F1318 for the heavy chain and L(WT)-CK for the light chain (antibody)
heavy: QVQLQESGPGLVKPSETLSLTCAVSGHSISHDHAWSWVRQPPGEGLEWIGFISYSGITNYNPSLQGRVTISRDNSKNTLYLQMNSLRAEDTAVYYCARSLARTTAMDYWGEGTLVTVSSASTKGPSVFPLAPSSKSTSGGTAALGCLVKDYFPEPVTVSWNSGALTSGVHTFPAVLQSSGLYSLSSVVTVPSSSLGTQTYICNVNHKPSNTKVDKKVEPKSCDKTHTCPPCPAPELLGGPKVFLFPPKPKDTLYISRTPEVTCVVVDVSHEDPEVKFNWYVDGVEVHNAKTKPREEQYNSTYRVVSVLTVLHQDWLNGKEYKCKVSNKALRAPIEKTISKAKGQPREPQVYTLPPSRDELTKNQVSLTCLVKGFYPSDIAVEWESNGQPENNYKTTPPVLDSDGSFFLYSKLTVDKSRWQQGNVFSCSVMHEALHYHVTQKSLSLSP
light: not shown
B12: antibody containing VH3-IgG1-F1315 for the heavy chain and L(WT)-CK for the light chain (antibody)
heavy: QVQLQESGPGLVKPSETLSLTCAVSGHSISHDHAWSWVRQPPGEGLEWIGFISYSGITNYNPSLQGRVTISRDNSKNTLYLQMNSLRAEDTAVYYCARSLARTTAMDYWGEGTLVTVSSASTKGPSVFPLAPSSKSTSGGTAALGCLVKDYFPEPVTVSWNSGALTSGVHTFPAVLQSSGLYSLSSVVTVPSSSLGTQTYICNVNHKPSNTKVDKKVEPKSCDKTHTCPPCPAPELLGKPKVFLFPPKPKDTLYISRTPEVTCVVVDVSHEDPEVKFNWYVDGVEVHNAKTKPREEQYNSTYRVVSVLTVLHQDWLNGKEYKCKVSNKALPAPIEKTISKAKGQPREPQVYTLPPSRDELTKNQVSLTCLVKGFYPSDIAVEWESNGQPENNYKTTPPVLDSDGSFFLYSKLTVDKSRWQQGNVFSCSVMHEALHYHVTQKSLSLSP
light: not shown

biological target: T1, human FcγRIIIa(F) (human, UniProt P08637 17-208, limits assumed); assay: SPR (Biacore), antibody captured on Protein L, human FcgR as analyte, pH 7.4, 25 C; amount normalised to captured antibody
T1 construct: also called hFcgRIIIa(F); allotype F158
T1 sequence (P08637 other isoform, or with tags, fused parts or gaps limits assumed): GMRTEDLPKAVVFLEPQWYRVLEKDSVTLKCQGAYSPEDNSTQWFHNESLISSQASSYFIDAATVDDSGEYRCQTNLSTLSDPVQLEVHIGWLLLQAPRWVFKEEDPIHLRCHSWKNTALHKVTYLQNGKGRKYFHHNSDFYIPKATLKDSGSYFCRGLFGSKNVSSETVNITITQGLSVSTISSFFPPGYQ
Experimental: Binding activity between the antibodies and human FcγRIa, FcγRIIa(H), FcγRIIa(R), FcγRIIb and FcγRIIIa(F) (hereinafter referred to as human FcγRs) was evaluated using the Biacore T100 or T200 (GE Healthcare). The antibodies being tested were captured by Protein L (ACTIGEN) that was immobilized in suitable amounts on the CM4 Sensor Chip (GE Healthcare) by amine coupling. Next, the diluted human FcγRs and a running buffer used as a blank were injected to allow interaction with the antibodies captured on the sensor chip. A buffer consisting of 20 mmol/L ACES, 150 mmol/L NaCl and 0.05% (w/v) Tween 20 (pH 7.4) was used for the running buffer, and this buffer was also used to dilute the human FcγRs. 10 mmol/L glycine-HCl (pH 1.5) was used to regenerate the sensor chip. All measurements were carried out at 25° C.
Binding activity to human FcγRs can be represented by the relative binding activity to human FcγRs. Antibody was captured by Protein L, and the amount of change in a sensorgram before and after the antibody was captured was defined as X1. Next, human FcγRs were allowed to interact with the antibody, and the value obtained by subtracting binding activity of human FcγRs represented as the amount of change in a sensorgram before and after allowing the running buffer to interact with antibody captured by Protein L (ΔA2) from the value obtained by multiplying by 1500 the value obtained by dividing the binding activity of human FcγRs represented as the amount of change in a sensorgram before and after that interaction (ΔA1) by the captured amount (X) of each antibody, was divided by the captured amount of each antibody (X) followed by multiplying by 1500 to obtain the binding activity of the human FcγRs (Y) (Equation 2).

Binder | BINDING AMOUNT (RU)
B1 | 63.5
B2 | -1.85
B3 | -1.01
B4 | -0.34
B5 | -0.94
B6 | -0.54
B7 | 105
B8 | -0.26
B9 | -0.68
B10 | 0.51
B11 | -1.03
B12 | -0.33
